# Test results: the RNAGym collection of RNA variant scans (doi:10.1073/pnas.2313332121)
# Fewer inactive variants are shown than the library holds.
# B1: TPR 5TU (parent)
# chain: GGAUCUUCUCGAUCUAACAAAAAAGACAAAUCUGCCACAAAGCUUGAGAGCAUCUUCGGAUGCAGAGGCGGCAGCCUUCGGUGGCGCGAUAGCGCCAACGUUCUCAACUAUGACACGCAAAACGCGUGCUCCGUUGAAUGGAGUUUAUCAUG
# Variants of: B1
# Experiment: polymerase ribozyme fitness, log enrichment relative to wild type (log ratio); higher = more active; in vitro selection for triplet polymerase activity
# In short: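 One round of in vitro selection, in triplicate, was applied to PCR-built, transcribed mutant libraries of each subunit of a heterodimeric triplet polymerase ribozyme. The steps were annealing with a biotinylated primer, partner subunit and triplets, incubation frozen at −7 °C, gel excision of extended constructs, streptavidin-bead capture and RT-PCR. Fitness is the logarithm, base 2, of genotype enrichment over wild-type enrichment from inverse-variance-weighted replicate averages of Illumina-sequenced inputs and outputs, keeping genotypes with ≥10 input reads and ≥1 read per output.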
row,Variant,polymerase ribozyme fitness (log ratio)
1,A20U G59A C93A,-4.07
2,A21U A23U A29C C35G G48A,≤ -4.2
3,A21U A47C A52C A60G C85G C87A A121C,≤ -4.2
4,A21G A22U G67A G86C C96U G117A,≤ -4.2
5,A21C U56G C85A C87U G92A,-3.51
6,A21C C93U A97U C116U C123U,-0.404
7,A20G G68U G126U C132A,≤ -4.2
8,A20C U56A,-0.524
9,A21C U56G G59A C72U A122U,-0.846
10,A20U A26U A29U G46A A49C A106U,≤ -4.2
11,A20U G42U U90G C96A G117A A137U,≤ -4.2
12,A20U G62C G94A,-3.04
13,A20U G70C C93G,≤ -4.2
14,A20C C87G G94C C99A A107U C108G,≤ -4.2
15,A21U C87U C96U C131G,≤ -4.2
16,A21U C27G C93U A138C A147C,≤ -4.2
17,A20G G46U G92U,-0.107
18,A21U G84A A89G,-1.44
19,A20U G48U U61G C85G,≤ -4.2
20,A21U C93A,-1.74
21,A20G A21U G59C C69A A98G U109A,≤ -4.2
22,A21U G92A,-2.72
23,A20U A137C,-3.99
24,A21C A91G C96U,-3.34

row,Variant,polymerase ribozyme fitness (log ratio)
1,A20U A29U G71U G84A,≤ -4.2
2,A20C A23U A28U G65U A73U G86U,≤ -4.2
3,A21G A23G G128C,≤ -4.2
4,A20G G46A U146A,-1.3
5,A20U A22U C57A C96G C125U,-3.05
6,A19U G136C,-3.86
7,A21G C93A C103U,-1.75
8,A21C U56A C93A A121C U146G C149U,-2.29
9,A20G C27G G42C G58C G68A A121C C125U G140A,≤ -4.2
10,A20C C27U C87U G92A U101A,-1.49
11,A21G G141A,1.12
12,A20U A28U A64C C79U C93A C114U,≤ -4.2
13,A20G A37U U111G,≤ -4.2
14,A20G G136A,0.27
15,A20U A21G A30G C99A,-4.05
16,A20C A24G A40C C69A C75G C87U G88C U102C G124A G133C U135C A147C,≤ -4.2
17,A21U A39U U61G G92U C108A G141A,≤ -4.2
18,A21C C38U G46C U53G G88U A122U G126A U135C C149G,≤ -4.2
19,A21C G25C A52C A89U C118A A119C,-3.52
20,A20C U55A C132A A137G G143A U146G,≤ -4.2
21,A20U G67U C116G,≤ -4.2
22,A21G G84C A113U,-4.09
23,A20U C54G,-2.64
24,A21U G136U,-2.65

row,Variant,polymerase ribozyme fitness (log ratio)
1,A20G C36U A119U A120C C129U A142G,-4.1
2,A21C A49C A52C U53G G84U C95U G141A,≤ -4.2
3,A21G C85A,-1.12
4,A21G C85U,-0.132
5,A21U A26C C69A G84U,-3.67
6,A20C A28U A49C U61A G92A A113G C149G,≤ -4.2
7,A21U G83C C95U,-1.58
8,A21U A39U C43G G50C G92A G141U,≤ -4.2
9,A20G C51U G58A C85U A106U,-2.76
10,A20G A21U A23U C87A A91C C95A C118G G133U U135A,≤ -4.2
11,A20G A26U U31G A40G C125G U151C G152A,≤ -4.2
12,A20U C96G,-0.585
13,A20G G48A A119C A121U G136U,-3.51
14,A20C A28C A37U G42U G71A C85U C99G A106G C131G,≤ -4.2
15,A21U C79G C96U C105U U134A,≤ -4.2
16,A21U C38A C57U U102G A119U,≤ -4.2
17,A19U U55A A60G G94U G143U,-3.55
18,A20U C87U,-2.07
19,A21U C85U,-0.171
20,A20C C75A C96U C118G G141A,≤ -4.2
21,A20C A120G,-0.986
22,A20U A23C A47G U77G G84C A97U C118U,≤ -4.2
23,A19U U144A,-0.138
24,A20G A41G C54U U56A C93G A120G U139G,-2.99

row,Variant,polymerase ribozyme fitness (log ratio)
1,A20G G46A U55G G70A C76U G84A C96U C103G C114U G152U,≤ -4.2
2,A21C C43A G50C G74C C76A C87A A91G A119G,≤ -4.2
3,A20U C35U C95A A97G C99A C105U A138G,≤ -4.2
4,A21C C87U,0.0419
5,A21C G50C C63U C93G,-1.78
6,A20G A41U C51A U56A C76U G86U G88U A91U C123A U144A C149A,≤ -4.2
7,A20U A47U G70C G80C C85G C93A C108U A122G U144G,≤ -4.2
8,A21U A24C A26U U44G A89U A91G G128U G140C U145A,≤ -4.2
9,A21G C38U A47C U90A C96A A137U,≤ -4.2
10,A20G C93U,-2.59
11,A21U G34A C93U C99G C149G,≤ -4.2
12,A21U G58C A73G C85G,-1.7
13,A21U G84A G141A,0.99
14,A20U U45A G124A,-3.98
15,A20U A30G A41G U45A U53G C96G,≤ -4.2
16,A21U G50C C54U C63U G94A,-0.0103
17,A21G C51U U53A C96U G126U,-2.46
18,A21G A52U C85G A119G C125U A137U,≤ -4.2
19,A21G C116G,1.2
20,A21G U144A,0.357
21,A20C C103G,-1.28
22,A21U G80A,-0.249
23,A21G C57A G74A C76G C87U G124U,≤ -4.2
24,A21U U44A C93G G94C,≤ -4.2

row,Variant,polymerase ribozyme fitness (log ratio)
1,A20U C54A G92U,-3.48
2,A21U U82G C93G,-3.69
3,A21U G62A,0.138
4,A20U C32A C99A A115G A120U,-4.05
5,A21U C75A A122U,-3.97
6,A21C A26U G140C U146A,≤ -4.2
7,A21C C32G G50A C93U A119U,≤ -4.2
8,A21C A22U A89U G92C G94U G141A,≤ -4.2
9,A21U C54U C63U G68A A73G C93G C108G U148G,≤ -4.2
10,A21C C57G,-0.649
11,A20G U77A C85U C105U U135A A138G,≤ -4.2
12,A20C A52C C79G,≤ -4.2
13,A20C A39U G42A A91U G133U,≤ -4.2
14,A21U A39C G58A G94C C125G U148G,≤ -4.2
15,A20G C27G A29U A97G A120G U146G,-4.06
16,A20C A21G G48A C54A A113C A147C,≤ -4.2
17,A21G G70A,-3.35
18,A20G U104C G117U,-0.102
19,A21G A41C U56G G65A G141U,-3.42
20,A21C G81C G88A A107G,≤ -4.2
21,A20G A52C,-1.28
22,A21U A24U A52G G71U U90C C123U G126U U144A A147C U151A,≤ -4.2
23,A21U A142U,-0.552
24,A20U A21G C51U G133C,≤ -4.2

row,Variant,polymerase ribozyme fitness (log ratio)
1,A20C C54U U78A,≤ -4.2
2,A20U A150G,-1.81
3,A21C C51U A106G,-0.144
4,A21U A30U C38G C85G G112A G124A,≤ -4.2
5,A20U U55A,-2.07
6,A20C C79A U82C A107C,≤ -4.2
7,A21C U45A A64G G92A,-3.46
8,A21U C35U C129U,-0.6
9,A21C A40C G94A G128U,-3.51
10,A20C A22C A39G G71A C85A G94C,≤ -4.2
11,A21G C36U C57A,-0.735
12,A20G U55G C116U A121C,-0.705
13,A20U A49U C93G C103U,≤ -4.2
14,A19U U56A A60G C75U C93A C118U U146A,-3.86
15,A21U A23C C38A C99G A142C,≤ -4.2
16,A20C A37C A40C G58C C95U,-4.12
17,A20C G50U G83U,-0.904
18,A21C C85G C103U G136A,-1.18
19,A20C U55A A110G,-3.9
20,A20C U55G G67U C72A C85U,≤ -4.2
21,A20G C85A,-2.13
22,A20G C85G,-2.92
23,A21U A64C U145G,≤ -4.2
24,A20G C54G U82A A98U U144A,-4.1

row,Variant,polymerase ribozyme fitness (log ratio)
1,A21C A49U C54U C85G G117A G124U,-3.06
2,A20G U45C U56G C57U C75A C87G G136C,≤ -4.2
3,A20U C85G,-3.35
4,A20C C85U,-1.04
5,A20U A113C G133C,≤ -4.2
6,A20U A30G C38U G59C A60C A73U G92U,≤ -4.2
7,A21C G84U U90C C116A A137C A138G,≤ -4.2
8,A20G C38G C69U G86U A91U C99G A137G,≤ -4.2
9,A21C C96U,0.207
10,A20G C38A C95U C125U G140C,≤ -4.2
11,A19U U44A U53A A73U C85U G136A,≤ -4.2
12,A20G G124U,-0.645
13,A20U G58C C85U A98U C129U U134C,-1.85
14,A21G C32G G34C U56A G59C U82G G88U C103G G140U,≤ -4.2
15,A21G,0.531
16,A21U,0.554
17,A21C,0.199
18,A20G A22C,-0.665
19,A20U A22U A52C G67A U127A,≤ -4.2
20,A20C A52G A142G,-2.02
21,A20G C57U C99A C108U,≤ -4.2
22,A20G U56A,-0.723
23,A20G A47G,-0.368
